Data reported in patent publication US20160271292A1 (GEORGIA TECH RESEARCH, published 2016).

Tests used:
BSA = target: T1, BSA (UniProt P02769 25-607); test: SPR, scFv/sdFv flowed over a BSA surface
T1 construct: Control surface in SPR; also called BSA surface

[1] = target: fibrin (polymerized from purified human fibrinogen with thrombin) (human) (UniProt P02671); test: SPR, sdFv flowed over thin fibrin layer, Langmuir 1:1 fit

T1 sequence (P02769 25-607 limits assumed): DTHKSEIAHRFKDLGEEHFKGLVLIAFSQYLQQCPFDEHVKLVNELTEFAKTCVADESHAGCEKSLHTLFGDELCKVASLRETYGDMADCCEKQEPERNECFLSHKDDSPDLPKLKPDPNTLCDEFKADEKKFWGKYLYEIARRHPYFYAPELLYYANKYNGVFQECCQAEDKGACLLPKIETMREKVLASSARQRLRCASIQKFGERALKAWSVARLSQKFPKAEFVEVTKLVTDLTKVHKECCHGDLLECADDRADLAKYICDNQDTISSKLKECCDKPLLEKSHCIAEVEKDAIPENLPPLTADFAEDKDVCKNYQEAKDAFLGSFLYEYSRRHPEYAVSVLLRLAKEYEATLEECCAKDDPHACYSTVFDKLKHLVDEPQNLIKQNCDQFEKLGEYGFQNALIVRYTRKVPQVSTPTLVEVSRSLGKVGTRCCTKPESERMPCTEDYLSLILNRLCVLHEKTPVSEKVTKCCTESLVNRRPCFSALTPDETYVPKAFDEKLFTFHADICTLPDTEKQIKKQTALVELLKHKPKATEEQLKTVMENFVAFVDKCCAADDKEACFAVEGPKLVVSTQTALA

B1: H6 fibrin-specific single domain variable fragment antibody (sdFv) (VHH)
VHH: QVQLLESGGGLVQPGGSLRLSCAASGDRFTHNDMGWVRQAPGKGLEWVSTIPTTDGSTYYADSVKGRFTISRDNSKSTLYLQMNSLRAEDTAVYYCATGYMWKAPAYVKYWGQGTLVTVSS
notes: Human-derived single domain antibody with only the VH of human IgG, from a phagemid library; Produced as soluble sdFv in E. coli HB2151 and purified on protein A; also called clone H6; nanobody
- binding result (BSA): no binding (tested: not printed)
- Kd [1]: 199 nM
